Data reported in patent publication US20170119913A1.

Key:
[1] = target: NTR1 on HT29 or NTR1-expressing HEK293 cells (UniProt P30989); experiment: cell-based or functional assay
[2] = target: neurotensin receptor 1 (NTR1), human, prepared from CHO cells recombinantly expressing the human receptor (human) (UniProt P30989)
[3] = target: KV channel
[4] = target: SKCa channel
[5] = target: sst (non-selective), somatostatin receptor; experiment: Cerep ExpresSProfile radioligand competition binding, reference compound (agonist radioligand)

Sequence of NTR1 on HT29 or NTR1-expressing HEK293 cells (P30989 whole entry): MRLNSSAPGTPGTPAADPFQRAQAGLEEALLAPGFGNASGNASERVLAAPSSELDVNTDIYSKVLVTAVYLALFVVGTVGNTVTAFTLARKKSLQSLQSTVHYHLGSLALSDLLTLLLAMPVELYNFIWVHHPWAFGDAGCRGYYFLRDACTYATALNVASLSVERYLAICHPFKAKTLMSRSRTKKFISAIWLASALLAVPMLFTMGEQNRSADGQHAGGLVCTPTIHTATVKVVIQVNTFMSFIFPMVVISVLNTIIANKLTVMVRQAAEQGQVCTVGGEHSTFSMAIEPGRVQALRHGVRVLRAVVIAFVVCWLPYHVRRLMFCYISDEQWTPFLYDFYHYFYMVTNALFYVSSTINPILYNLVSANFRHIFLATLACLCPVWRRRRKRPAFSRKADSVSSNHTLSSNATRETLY
Sequence of neurotensin receptor 1 (NTR1), human, prepared from CHO cells recombinantly expressing the human receptor (human) (P30989 whole entry): as above

Substance | Agonistic Effect EC50 [nM], functional Ca2+ mobilisation assay [1] [nM] | Antagonistic Effect IC50 [nM], functional Ca2+ mobilisation assay [1] [nM] | IC50 [2] [nM] | further results
1206-Glutar-Ttds3-Asn-Ala-Val-Pro-Asn-Leu-Arg-Gly-Asp-Leu-Gln-Val-Leu-Ala-Gln-Lys-Val-Ala-Arg-Thr-GA (peptide) | > 50000 | 38 | 9.9 | 
1206-Glutar-Ttds-Lys(1206-Glutar-Ttds)-Ttds-Asn-Ala-Val-Pro-Asn-Leu-Arg-Gly-Asp-Leu-Gln-Val-Leu-Ala- (peptide) | > 50000 | 12 | 7.5 | 
1206-Glutar-Ttds-Lys(DOTA)-Ttds-GABA-Asn-Ala-Val-Pro-Asn-Leu-Arg-Gly-Asp-Leu-Gln-Val-Leu-Ala-Gln-Lys (peptide) | > 50000 | 18 | 10 | 
alpha-dendrotoxin (from UniProt P00980 1-59) (peptide) |  |  |  | Ki [3]: 0.2 nM
apamin (from UniProt P01500 28-45) (peptide) |  |  |  | Ki [4]: 0.0084 nM
somatostatin-14 (from UniProt P61278 103-116) (peptide) |  |  |  | Ki [5]: 0.11 nM
